We go through 7 molecules from publication PMC3545015.

For data set [1], the target named is T1, Pot1pC (198-339 V199D) (Schizosaccharomyces pombe, UniProt O13988 198-339, V199D).
T1 sequence: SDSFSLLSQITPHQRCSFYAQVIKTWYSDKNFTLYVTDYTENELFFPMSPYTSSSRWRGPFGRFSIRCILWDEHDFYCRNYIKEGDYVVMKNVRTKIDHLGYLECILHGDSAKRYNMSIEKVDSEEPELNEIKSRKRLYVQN
As to the kind of experiment: X-ray crystal structure.

For data set [2], the target named is T1, Pot1pC (198-339 V199D). As to the kind of experiment: ITC.

As to GCTTACGGT (ssDNA) [G2C], the binding result in the data set with Pot1pC (198-339 V199D) [1] is reported as “binds”. The molecule GGTTACGGT (ssDNA) [9mer] gave a Kd with Pot1pC (198-339 V199D) [2] of 24 nM. Same read-out and setting: the same measure for GGTAACGGT (ssDNA) [T4A]: 21 nM; for GGATACGGT (ssDNA) [T3A]: 37 nM; for GGTTAGGGT (ssDNA) [C6G]: 6 nM. Same read-out and setting: then GGTTACGCT (ssDNA) [G8C], with 22 nM. Same read-out and setting: the same measure for GGTTTCGGT (ssDNA) [A5T]: 63 nM.
